Assay: yeast display, Sf9 membrane polyspecificity reagent, FACS + sequencing; frameworks hold sequencing errors
How it was run: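 Nanobodies from a synthetic yeast display library (Saccharomyces cerevisiae BJ5465), induced 36–48 hours with galactose, were stained 1 hour at 4 °C with 10% biotinylated, detergent-solubilized Sf9 membrane reagent, enriched on streptavidin microbeads, then FACS-sorted. Anti-HA (expression) and streptavidin (reagent binding) fluorescence set low and high (top ~1%) gates. Polyreactivity labels come from the gate of origin. Genes were colony-PCR amplified, MiSeq 2 × 250 sequenced and filtered by CDR length.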

| Sequence | polyreactivity (PSR sort gate) |
| --- | --- |
| QVQLVESGGGLVQAGGSLRLSCAASGSIFQVNAMGWYRQAPGKERELVAANRSGGRTTYADSVKGRFTISRDNAKNTVYLQMISLKTEDTAVYYGAAPLYYKSWTYPRLRSGYWGQGTQVTVSS | high polyreactivity |
| QVQLVESGGGLVQAGGSLRLSCAASGSIFQWNAMGWYRQAPGKERELVAAMSWSGTRTYYADSVKGRFTISRDNAKNTVYLQMNSLKPEDTAVYDCAFRGGKPTYRYDYWGQGTQVTVSS | high polyreactivity |
| QVQLVESGGGLVQAGGSLRLSCAASGSIFQWYAMGWYRQAPGKERELVAAITISGTRTYYADSVKGRFTISRDNAKYTVYLQMNSLKPEDTAVYYCAATEGGRFRRIADASMYYWGQGTQVTVSS | high polyreactivity |
| QVQLVESGGGLVQAGGSLRLSCAASGSIFQYNAMGWSRQAPGKERELVAAISSRGGITYYADSVKGRFTISRDNAKNTVYLQMNSLKPEDTAVYYCAAEAYYSEVRWYEYWGQGTQVTVSS | high polyreactivity |
| QVQLVESGGGLVQAGGSLRLSCAASGSIFQYNAMGWYREAPGHEWELVAVISRSGSRTYYADSVKGRFTISRDNAKNTVYLQMNSLKPEDTAVYYCAADIWFYTYYGYDYWGQGTQVTVSS | high polyreactivity |
| QVQLVESGGGLVQAGGSLRLSCAASGSIFQYNAMGWYRQAPGKEREFVADISYSGGTTDYADSVKGRFTISRDNAKNTVYLQMNRLKPEDTAVYYCNADLSSGYPYSYYSATEYDYWGQGSQVTVSS | low polyreactivity |
| QVQLVESGGGLVQAGGSLRLSCAASGSIFQYNAMGWYRQAPGTERELVAAITWTGTSTYADSVKGRFTISRDNAKNTVYLQMNSLKPEDTAVYYCAARYYAPRWFRYDYWGQGTQVTVSS | low polyreactivity |
| QVQLVESGGGLVQAGGSLRLSCAASGSIFQYNAMGWYRQVPGKERELVAAITSGGSTYADSVKGRFTISRDNAKNTVYLQMNSLKPEDTAVYYCNADRWFGNYLHLTFLNDYWGQGTQVTVSS | low polyreactivity |
| QVQLVESGGGLVQAGGSLRLSCAASGSIFQYNVKGWYRQEPGKEREFVADISSSGGSTYYADSVKGRFTISRDNAKNTVYLQMNSLKPEDTAVYYCNADPGYVFYRDEYWGQGTQVTVSS | low polyreactivity |
| QVQLVESGGGLVQAGGSLRLSCAASGSIFRANAMGGYRQAPGKERELVATISSGGSTNYADSVKGRFTISRDNAKNTVYLQMNSLKPEDTAVYYCAVKWYPPGHDYWGQGTQVTVSS | low polyreactivity |
| QVQLVESGGGLVQAGGSLRLSCAASGSIFRANAMGWYRQAPGKERELVAAISYSGGSTYYADSVKGRFTISRDNAKNTVYLQMNTLKPEDTAVYYCAAEFLYASVYYSYWGQGTQVTVSS | high polyreactivity |
| QVQLVESGGGLVQAGGSLRLSCAASGSIFRANVLGWYRKAPGKERELVAAISRGGGTTYYADSVKGRFTISRDNAKNTVYLQMNSLKPEDTAVYYCAALGHYRSNNNVDMDYWGQGTQVTVSS | high polyreactivity |
| QVQLVESGGGLVQAGGSLRLSCAASGSIFRAYALGWYRQAPGEERELVAAISWRAGRTYYADSVKGRFTISRDNAKNTVYLQMNSLKPEDTAVYYCAARKRAQQGTRDHDYWGQGTQVTVSS | high polyreactivity |
| QVQLVESGGGLVQAGGSLRLSCAASGSIFRAYAMGWYRQAPGKERELVAAISIGGRTYYADSVKGRFTISRDNAKNTVYLQMNSLKPEDTAVYYCAAVRSYVKGGMYYWGQGTQVTVSS | low polyreactivity |
| QVQLVESGGGLVQAGGSLRLSCAASGSIFRAYAMGWYRQAPGKERELVAAISWGGGSTSYADSVKGRFTISRDNAKNTVYLQMNSLKPEDTAVYFCNKVSFSKRRDYYWGQGTQVTVSS | high polyreactivity |
| QVQLVESGGGLVQAGGSLRLSCAASGSIFRAYAMGWYRQAPGKERELVAAISWGGGSTSYADSVKGRFTISRDNAKNTVYLQMNSLKPEDTAVYYCNKVSFSKRRDYYWGQGTQVTVSS | high polyreactivity |
| QVQLVESGGGLVQAGGSLRLSCAASGSIFRAYAMGWYRQAPGKERELVAAITRGGSTNYADSVKGRFTISRDNAKNNVYLQMKSLKPEDTAVYYCAAQNYWYYPRRFDYWGQGTQVTVSS | high polyreactivity |
| QVQLVESGGGLVQAGGSLRLSCAASGSIFRAYAMGWYRQAPGKERELVAGITKSGGSTYYADSVKGRFTISRDNAKNTVYLQMNILKPEDTAVYYCAAYRSRTYGYWGQGTQVTVSS | high polyreactivity |
| QVQLVESGGGLVQAGGSLRLSCAASGSIFRAYTMGWYRQAPGKERELVAAINWSGGSTYYADSVKGRFTISRDNAKNTVYLQMNSLKPEDTAVYYCAKRWASWRYDYWGQGTQVTVSS | high polyreactivity |
| QVQLVESGGGLVQAGGSLRLSCAASGSIFRDNAMGWYRQAPGKERELVAAINVRDGDTFYADSVKGRFTISRDNAKNTVYLQMNSLKPEDTAVYYCAVPGATSYFAYDSWGQGTQVTVSS | low polyreactivity |
| QVQLVESGGGLVQAGGSLRLSCAASGSIFRFKAMGWYRQAPGKERELVAAITSSGGSTYYADSVKGRFTISRDNAKNTVYLQMNSLKPEDTAVYYCAAGARRVGRYYWGQGTQVTVSS | high polyreactivity |
| QVQLVESGGGLVQAGGSLRLSCAASGSIFRFYAMGWYRQAPGKERELDAVITSTGRKYYADSVKGRFTISRDNAKNTGYLQMTSLKPEDTAVYYCNAAEAGKGAYAYDYWGQGTQVTVSS | low polyreactivity |

| Sequence | polyreactivity (PSR sort gate) |
| --- | --- |
| QVQLVESGGGLVQAGGSLRLSCAASGSIFRFYAMGWYRQAPGKERELVAAITSGGSTNYADSVKGRFTISRDNAKNTVYLQMNSLKPEDTAVYYCAAELVYFFIYDYWGQGTQVTVSS | low polyreactivity |
| QVQLVESGGGLVQAGGSLRLSCAASGSIFRFYGMGWYRQAPGKERELVATISWSSGRTSYADSVKGRFTISRDNAKNTVYLQMKSLKPEDTAVYYCNADQWDKSYDYWGQGTQVTVSS | high polyreactivity |
| QVQLVESGGGLVQAGGSLRLSCAASGSIFRFYTMGWYRQAPGKERELVAAIRYRGTSTYYADSVKGRFTISRDNAKNTVYLQMNSLKPEDTAVYYCATRNIYFSSVDYWGQGTQVTVSS | high polyreactivity |
| QVQLVESGGGLVQAGGSLRLSCAASGSIFRGNAMGWYRQAPGKERELVAAINKSGGSTYYADSVKGRFTISRDNAKNTVYLQMNSLKPEDTAVYYCAAVYKRLQPYGYWGQGTQVTVSS | high polyreactivity |
| QVQLVESGGGLVQAGGSLRLSCAASGSIFRGNAMGWYRQAPGKERELVAAISGSAGRTYYADSVKGRFTISRDNAKNTVYLQMNSLKPEDTAVYYCAADSFKGYDYWGQGTQVTVSS | high polyreactivity |
| QVQLVESGGGLVQAGGSLRLSCAASGSIFRGNAMGWYRQAPGKERELVAAISKSGGSTYYADSVKGRFTISRDNAKNTVNLQMNSLKPEDTAVYYCAARTTYLYGMYYWGQGTQVTVSS | low polyreactivity |
| QVQLVESGGGLVQAGGSLRLSCAASGSIFRGNSMGWYRQAPGKERELVAVITWSGGSTYYADSVKGRFTISRDNAKNTVYLQMNSLKPEDTAVYYCNAARKQRVYFAGDYWGQGTQVTVSS | high polyreactivity |
| QVQLVESGGGLVQAGGSLRLSCAASGSIFRGYAMGWYRQAPGKERELVAAITKIGASTYYADSVKGRFTISRDNAKNTVYLQMYSLKPEDTAVYYCNKDRGITPYRAYWGMDYWGQGTQVTVSS | low polyreactivity |
| QVQLVESGGGLVQAGGSLRLSCAASGSIFRGYAMGWYRQAPGKERELVAAITKRGGNTYYADSVKGRFTISRDNAKNTVYLQMNSLKPDDTAVYYCAKAGWGKWVYAQMDYWGQGTQVTVSS | high polyreactivity |
| QVQLVESGGGLVQAGGSLRLSCAASGSIFRGYAMGWYRQAPGKERELVAAITSSGGSTNYADSVKGRFTISRDNAKNTVYLQMNSLKPEDTAVYYCAKAPGLWHLIQRMDYWGQGTQVTVSS | low polyreactivity |
| QVQLVESGGGLVQAGGSLRLSCAASGSIFRGYTMGGYRQAPGKETELVAAISRSGGSTYYADSVKGRFTISRDNAKNTVYLQMNSLKPEDTAVYYCAADSFRTRAIYDYWGQGTQVTVSS | high polyreactivity |
| QVQLVESGGGLVQAGGSLRLSCAASGSIFRHYTMGWYRQAPGKERELVAVISSGGNTNYADSVKGLFTISRDNAKYTDYLQLNSLKPEDTAVYYCAAGGYDVYHDPYYYWGQGTQVTVSS | high polyreactivity |
| QVQLVESGGGLVQAGGSLRLSCAASGSIFRINAMGWYRQAPGKERELVAAISTSGGTTYYADSVKGRFTISRDNAKNTVYLQMNSLKPEDTAVYYCSARRVTSPFGSDSWGQGTQVTVSS | low polyreactivity |
| QVQLVESGGGLVQAGGSLRLSCAASGSIFRIYAMGWYRLEPGKERELVSGISKSVGSTYYADSVKGRFTISRDNAKNTVYLQMNSLKTEDTAVYYCNARRPSWGLDKYDYWGQGTQVTVSS | low polyreactivity |
| QVQLVESGGGLVQAGGSLRLSCAASGSIFRIYAMGWYRQAPGKEREFVAAISSRGGRTYYADSVKGRFTISRDNAKNTVYLQMNSLKPEDTAVYYCNARATRGSYYEYEYWGQGTQVTVSS | high polyreactivity |
| QVQLVESGGGLVQAGGSLRLSCAASGSIFRIYAMGWYRQAPGKERELVAAISRGSTRTYYADSVKGRFTISRDNAKNTVYLQMNSLKPEDTAVYYCAKRGISPYGYWGQGTQVTVSS | high polyreactivity |
| QVQLVESGGGLVQAGGSLRLSCAASGSIFRKYALGWYRQAPGKERELVAAIRSSGGSTYYADSVKGRFTISRDNAKNTVYLQMNSLKPEDTAVYYCAARYYRPSRYDYWGQGTQVTVSS | high polyreactivity |
| QVQLVESGGGLVQAGGSLRLSCAASGSIFRLNAMGWYRQAPGKERELVAAISRNTGRTYYADSVKGRFTISRDNAKNTVYLQMNSLKPEDTAVYYCAADRSPTGYVRVYYWGQGPQVTVSS | high polyreactivity |
| QVQLVESGGGLVQAGGSLRLSCAASGSIFRLNAMGWYRQAPGKERELVARIDSSGSTNYADSVKGRFTISRDNAKNTVYLQMNSLKPEDTAVYYCAAGLVLIVGMDSWGQGTQVTVSS | low polyreactivity |
| QVQLVESGGGLVQAGGSLRLSCAASGSIFRLNTMGWYRQAPGKERELVAAIFTSGGSTYADSVKGRFTISRDNAKNTVYLQMNSLKPEDTAVYYCAGMDYWGQGTQVTVSS | low polyreactivity |
| QVQLVESGGGLVQAGGSLRLSCAASGSIFRLYAMGWYRPAPGKERELVATITSGGNTYADSVKGRFTISRDNAKNTVYLQMNSLKPEDTAVYYCAARYRYRGTQRPYVGYYRNDYWGQGTQVTVSS | high polyreactivity |

Source: the nanobody polyreactivity screen of Harvey et al. (2022)
